Data on one protein can be found in article doi:10.1101/2024.03.07.581839 (bioRxiv, 2024).

This series deals with the molecule itself. The series is described as follows: cryo-EM structure.

B1: human GPR156 (receptor)
chain: MEPEINCSELCDSFPGQELDRRPLHDLCKTTITSSHHSSKTISSLSPVLLGIVWTFLSCGLLLILFFLAFTIHCRKNRIVKMSSPNLNIVTLLGSCLTYSSAYLFGIQDVLVGSSMETLIQTRLSMLCIGTSLVFGPILGKSWRLYKVFTQRVPDKRVIIKDLQLLGLVAALLMADVILLMTWVLTDPIQCLQILSVSMTVTGKDVSCTSTSTHFCASRYSDVWIALIWGCKGLLLLYGAYLAGLTGHVSSPPVNQSLTIMVGVNLLVLAAGLLFVVTRYLHSWPNLVFGLTSGGIFVCTTTINCFIFIPQLKQWKAFEEENQTIRRMAKYFSTPNKSFHTQYGEEENCHPRGEKSSMERLLTEKNAVIESLQEQVNNAKEKIVRLMSAECTYDLPEGAAPPASSPNKDVQAVASVHTLAAAQGPSGHLSDFQNDPGMAARDSQCTSGPSSYAQSLEGPGKDSSFSPGKEEKISDSKDFSDHLDSGCSQKPWTEQSLGPERGDQVPMNPSQSLLPERGGSDPQRQRHLENSEEPPERRSRVSSVIREKLQEVLQDLGLGPEASLSTAPSCHQQTWKNSAAFSPQKMPLSKELGFSPYMVRRRRAAQRARSHFPGSAPSSVGHRANRTVPGAHSRLHVQNGDSPSLAPQTTDSRVRRPSSRKPSLPSDPQDRPGTLEGSKQSQTEPEGARGSKAAFLRQPSGSGRAPSPAAPCLSKASPDLPEQWQLWPPVPSGCASLSSQHSYFDTESSSSDEFFCRCHRPYCEICFQSSSDSSDSGTSDTDPEPTGGLASWEKLWARSKPIVNFKDDLKPTLV
As a reminder, the stoichiometry N is a count of units in the complex or per binding partner. In the case of B1, the “stoichiometry N” value is 2.
